Here are results for 13 molecules from patent US20240254206A1 (ROCKEFELLER UNIVERSITY, published 2024).

What is called Kd is the concentration at which binding is half-saturated. The low end stands for tighter binding, the high end for weaker binding. The term koff denotes the rate constant with which the complex falls apart. Read a high koff as a short-lived complex. By kon is commonly meant the second-order rate constant of association. Read a low kon as slow association.

The assay concerns the target 2CC-core. Nature of the assay: SPR, antigen on chip, IgG injected. On the technique in general: SPR reads the build-up and loss of mass on a sensor chip optically.

B1: 12A21 (antibody, V domains shown)
VH: SQHLVQSGTQVKKPGASVRVSCQASGYTFTNYILHWWRQAPGQGLEWMGLIKPVFGAVNYARQFQGRIQLTRDIYREIAFLDLSGLRSDDTAVYYCARDESGDDLKWHLHPWGQGTQVIVSP
VL: DIQMTQSPSSLSASVGDRVTINCQAGQGIGSSLNWYQKKPGRAPKLLVHGASNLQRGVPSRFSGSGFHTTFTLTISSLQPDDVATYFCAVFQWFGPGTKVDIKR
notes: also called 12A21HC; 12a21kc
For the molecule B1, binding was characterised by a dissociation constant (Kd) of 1.81 nM, the koff was found to be 0.00033 s⁻¹ and the kon came out at 182000 M⁻¹ s⁻¹.

B2: 1NC9 (antibody, V domains shown)
VH: QVRLVQSGAQLKKPGASVTVSCEASGYNFVNYIINWVRQTPGRSFEWVGMIDPRRGRPWSAQKFQGRLTLTRDIDSEKLYMHLSGLRGDDTAVYYCARQDSDFHDGHGHTLRGMFDSWGQGSPVTVSS
VL: QVLSVSGTPGQRVIISCSGTSSNVGGNLVSWYQHLPGAAPRLLIHRDDQRPSGVPDRFSGSKSGNSASLVISGLRSDDEADYFCAAYDSTFSLPVFGGGTRLTVLS
notes: also called LSSNEC9HC; LSSNEC9LC
For the molecule B2, binding was put at a Kd of 4.61 nM, the koff is 0.000236 s⁻¹ and the kon was 51100 M⁻¹ s⁻¹.

B3: 12A12 (antibody, V domains shown)
VH: SQQLVQSGTQVKKPGASVRISCQASGYSFTDYVLHWWRQAPGQGLEWMGWIKPVYGARNYARRFQGRINFDRDIYREIAFMDLSGLRSDDTALYFCARDGSGDDTSWHLDPWGQGTLVIVSA
VL: DIQMTQSPSSLSASVGDRVTITCQAGQGIGSSLQWYQQKPGKAPKLLVHGASNLHRGVPSRFSGSGFHTTFSLTISGLQRDDFATYFCAVLEFFGPGTKVEIKR
notes: also called 12A12HC; 12a12kc
Take B3: the Kd came out at 0.0269 nM, the koff was found to be 1.7e-06 s⁻¹ and the kon stood at 63300 M⁻¹ s⁻¹.

B4: 3BNC60 (antibody, V domains shown)
VH: QVHLSQSGAAVTKPGASVRVSCEASGYKISDHFIHWWRQAPGQGLQWVGWINPKTGQPNNPRQFQGRVSLTRQASWDFDTYSFYMDLKAVRSDDTAIYFCARQRSDFWDFDVWGSGTQVTVSSASTKG
VL: DIQMTQSPSSLSARVGDTVTITCQANGYLNWYQQRRGKAPKLLIYDGSKLERGVPARFSGRRWGQEYNLTINNLQPEDVATYFCQVYEFIVPGTRLDLKRTVAA
notes: also called 3BNC60HC; 3BNC60KC
Consider B4, for which the affinity, expressed as Kd, was 54.5 nM; the koff is 0.00164 s⁻¹; the kon came out at 30200 M⁻¹ s⁻¹.

B5: 3BNC117 (antibody, V domains shown)
VH: QVQLLQSGAAVTKPGASVRVSCEASGYNIRDYFIHWWRQAPGQGLQWVGWINPKTGQPNNPRQFQGRVSLTRHASWDFDTFSFYMDLKALRSDDTAVYFCARQRSDYWDFDVWGSGTQVTVSSASTKG
VL: DIQMTQSPSSLSASVGDTVTITCQANGYLNWYQQRRGKAPKLLIYDGSKLERGVPSRFSGRRWGQEYNLTINNLQPEDIATYFCQVYEFVVPGTRLDLKRTVAAPSVFIFPPSD
notes: also called 3BNC117HC; 3bnc117kc
Regarding B5, the Kd came to 36.8 nM.

B6: 3BNC55 (antibody, V domains shown)
VH: QVQLVQSGTAVKRPGASVRVSCQASGYTFTDYFIYWWRQAPGQGLEWLGWINPLTSQPSYPSRFQGRLTLTRDTFDEMLYMDLRGLRSDDTGIYFCARRHSDYCDFDIWGSGTQIIVSS
VL: DIQMTQSPSSLSASVGDKVTITCQTSAGYLNWYQQRRGRAPKLLMYDGSRLVTGVPSRFSGRRWGTQYNLTIGSLQPEDIATYYCQVYEFFGPGTRLDLKS
notes: also called 3BNC55HC; 3BNC55KC
Turning to B6, binding was characterised by a dissociation constant (Kd) of 25.7 nM.

B7: 3BNC66 (antibody, V domains shown)
VH: QVQLVQSGAALKKPGASLRISCQTYGYKFTDHLIYWWRQAPGQGLEWIGWIKPETGQPSYSYRFQGRVSLTRDTFEEIAFMDLRGLRSDDTAIYFCARRHTDYCVFDVWGSGSQIIVSS
VL: DIQMTQSPSSLSASVGDTVTITCQTNKGYLNWYQQRRGRAPKLLMYDGSKLVTGVPSRLSGRRWGTQYNLTIGSLQPEDIATYYCQVYEFFGPGTRLDLKR
notes: also called 3BNC66HC; 3bnc66kc
For B7, binding was put at a Kd of 33.6 nM, the koff was 0.00133 s⁻¹ and the kon is 39600 M⁻¹ s⁻¹.

B8: 3BNC156 (antibody, V domains shown)
VH: QVQLVQSGAALKKPGASLRISCQTYGYKFTDHLIYWWRQAPGQGLEWIGWIKPETGQPSYSYRFQGRVSLTRDTFEEIVFMDLRGLRSDDTAIYFCARRHSDYCDFDVWGGGSQVIVSS
VL: DIQMTQSPSSLSASVGDTVTITCQTNKGYLNWYQQKRGRAPKLLMYDGSKLVTGVPSRLSGRRWGTQYNLTIGSLQPEDIATYYCQVYEFFGPGTRLDLKR
notes: also called 3BNC156HC; 3bnc156kc
B8 displayed a Kd of 81.2 nM, a koff of 0.00153 s⁻¹ and an on-rate constant (kon) of 18800 M⁻¹ s⁻¹.

B9: 1B2530 (antibody, V domains shown)
VH: QVRLEQSGAAMRKPGASVTLSCQASGYNFVKYIIHWVRQKPGLGFEWVGMIDPYRGRPWSAHKFQGRLSLSRDTSMEILYMTLTSLKSDDTATYFCARAEAASDSHSRPIMFDHWGQGSRVTVSS
VL: QSALTQPPSASGAPGQRVTISCSGGPSNVGGNYVYWYRQFPGTAPTLLILRDDQRPSGVPDRFSASKSGNSASLAISGLRPDDEGFYFCATYDSDGSIRLFGGGTALTVLS
notes: also called LSSB2530HC; LSSB2530LC
With B9, the Kd was found to be 5.9 nM, the off-rate constant (koff) was 0.000402 s⁻¹ and the kon turned out to be 68300 M⁻¹ s⁻¹.

B10: NIH45-46 (antibody, V domains shown)
VH: QVRLSQSGGQMKKPGESMRLSCRASGYEFLNCPINWIRLAPGRRPEWMGWLKPRGGAVNYARKFQGRVTMTRDVYSDTAFLELRSLTSDDTAVYFCTRGKYCTARDYYNWDFEH
VL: EIVLTQSPATLSLSPGETAIISCRTSQSGSLAWYQQRPGQAPRLVIYSGSTRAAGIPDRFSGSRWGADYNLSISNLESGDFGVYYCQQYEFFG
Consider B10, for which the Kd stood at 4.4 nM, the koff was determined as 0.000494 s⁻¹ and the kon came to 112000 M⁻¹ s⁻¹.

B11: 8ANC195 (antibody, V domains shown)
VH: QIHLVQSGTEVKKPGSSVTVSCKAYGVNTFGLYAVNWVRQAPGQSLEYIGQIWRWKSSASHHFRGRVLISAVDLTGSSPPISSLEIKNLTSDDTAVYFCTTTSTYDKWSGLHHDGVMAFSSWGQGTLISVSA
VL: DIQMTQSPSTLAASIGGTVRVSCRASQSITGNWVAWYQQRPGKAPRLLIYRGAALLGGVPSRFSGSAAGTDFTLTIGNLQAEDFGTFYCQQYDTYPGTFGQGTKVEVKR
notes: also called 8ANC195HC; 8ANC195KC
Consider B11, for which the Kd is 54.7 nM, the koff was determined as 0.00132 s⁻¹ and the kon amounted to 24100 M⁻¹ s⁻¹.

B12: 8ANC131 (antibody, V domains shown)
VH: QGQLVQSGGGLKKPGTSVTISCLASEYTFNEFVIHWIRQAPGQGPLWLGLIKRSGRLMTAYNFQDRLRLRRDRSTGTVFMELRGLRPDDTAVYYCARDGLGEVAPDYRYGIDVWGQGSTVIVTA
VL: EIVLTQSPATLSLSPGERATLSCRASQGLNFVVWYQQKRGQAPRLLIHAPSGRAPGVPDRFSARGSGTEFSLVISSVEPDDFAIYYCQEYSSTPYNFGPGTRVDRKR
notes: also called 8ANC131HC; 8ANC131KC
B12 gave a Kd of 66.1 nM, a dissociation rate constant (koff) of 0.00323 s⁻¹ and a kon of 48800 M⁻¹ s⁻¹.

B13: 8ANC134 (antibody, V domains shown)
VH: QGQLVQSGGGVKKPGTSVTISCLASEYTFNEFVIHWIRQAPGQGPVWLGLIKRSGRLMTSYKFQDRLSLRRDRSTGTVFMELRGLRLDDTAVYYCARDGLGEVAPAYLYGIDAWGQGSTVIVTS
VL: EIVLTQSPATLSLSPGERATLSCRASQGLNFVVWYQQKGGQAPRLLIHGPTDRAPGVPDRFSARGSGTEFSLVISSVEPDDFALYYCQEYSSTPYNFGPGTRVDRKR
notes: also called 8ANC134HC; 8ANC134KC
B13 came in with a Kd of 46.1 nM, a koff of 0.000957 s⁻¹ and a kon of 20800 M⁻¹ s⁻¹.
